Results from patent publication US20080138349A1.

Legend:
[1] = biological target: FcγRIIB (CD32B), soluble dimeric Fc fusion (human) (UniProt P31994); test: Biacore SPR
[2] = biological target: FcγRIIIA 158F (CD16A F158), soluble monomer (human) (UniProt P08637); test: Biacore SPR
[3] = biological target: FcγRIIIA 158V (CD16A V158), soluble monomer (human) (UniProt P08637); test: Biacore SPR
[4] = biological target: FcγRIIIA 158F (CD16A F158), soluble monomer (human) (UniProt P08637); test: Biacore SPR; value on CD16A over value on CD32B
[5] = biological target: FcγRIIIA 158V (CD16A V158), soluble monomer (human) (UniProt P08637); test: Biacore SPR; value on CD16A over value on CD32B
[6] = biological target: FcγRIIA 131H (CD32A H131), soluble dimeric Fc fusion (human) (UniProt P12318); test: binding to human FcRs; method not given
[7] = biological target: FcγRIIB (CD32B), soluble dimeric Fc fusion (human) (UniProt P31994); test: binding to human FcRs; method not given
[8] = biological target: FcγRIIIA 158F (CD16A F158), soluble monomer (human) (UniProt P08637); test: binding to human FcRs; method not given
[9] = biological target: FcγRIIIA 158V (CD16A V158), soluble monomer (human) (UniProt P08637); test: binding to human FcRs; method not given

Sequence of FcγRIIB (CD32B), soluble dimeric Fc fusion (human) (P31994 43-217): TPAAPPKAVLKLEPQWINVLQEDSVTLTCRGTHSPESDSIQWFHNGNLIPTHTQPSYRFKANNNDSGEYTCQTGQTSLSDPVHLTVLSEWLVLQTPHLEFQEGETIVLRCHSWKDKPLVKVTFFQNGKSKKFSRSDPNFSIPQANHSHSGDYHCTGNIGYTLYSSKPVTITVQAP
Sequence of FcγRIIIA 158V (CD16A V158), soluble monomer (human) (P08637 17-208 F176V): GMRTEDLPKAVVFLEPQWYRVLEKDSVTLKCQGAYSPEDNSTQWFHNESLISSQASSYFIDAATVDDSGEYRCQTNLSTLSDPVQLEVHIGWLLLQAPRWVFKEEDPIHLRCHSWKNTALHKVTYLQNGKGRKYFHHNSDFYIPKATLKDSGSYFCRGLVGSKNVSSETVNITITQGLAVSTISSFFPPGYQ
Sequence of FcγRIIIA 158F (CD16A F158), soluble monomer (human) (P08637 17-208): as the sequence (P08637 17-208 F176V) above, with V160F counted along it
Sequence of FcγRIIA 131H (CD32A H131), soluble dimeric Fc fusion (human) (P12318 34-217): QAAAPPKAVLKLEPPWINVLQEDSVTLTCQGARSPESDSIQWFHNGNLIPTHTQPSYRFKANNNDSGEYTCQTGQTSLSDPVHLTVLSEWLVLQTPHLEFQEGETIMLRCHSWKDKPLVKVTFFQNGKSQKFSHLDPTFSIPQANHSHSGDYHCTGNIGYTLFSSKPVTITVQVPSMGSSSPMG

Substance | Koff WT/Koff mutant [1] | Koff WT/Koff mutant [2] | Koff WT/Koff mutant [3] | Ratio of Affinities CD16A F158/CD32B [4] | Ratio of Affinities CD16A V158/CD32B [5] | fold change relative to wild-type affinity [6] [fold] | fold change relative to wild-type affinity [7] [fold] | fold change relative to wild-type affinity [8] [fold] | fold change relative to wild-type affinity [9] [fold]
Immunoglobulin with variant Fc region P247L N421K D270E (antibody) | 0.58 | 2.46 | 1.89 | 4.24 | 3.26 |  |  |  | 
Immunoglobulin with variant Fc region P247L N421K D270E F243L (antibody) | 0.32 | 3.45 | 2.3 | 10.8 | 7.19 |  |  |  | 
Immunoglobulin with variant Fc region P247L N421K F243L (antibody) | 0.17 | 1.71 | 1.89 | 10.1 | 11.1 |  |  |  | 
Immunoglobulin with variant Fc region P396L D270E (antibody) | 0.89 | 1.65 | 1.38 | 1.85 | 1.55 |  |  |  | 
Immunoglobulin with variant Fc region P396L F243L (antibody) | 2.22 | 1.6 | 1.49 | 0.72 | 0.67 |  |  |  | 
Immunoglobulin with variant Fc region Q419H P396L (antibody) | 1.33 | 1.19 | 1.19 | 0.89 | 0.89 |  |  |  | 
Immunoglobulin with variant Fc region Q419H P396L D270E F243L (antibody) | 0.26 | 1.15 | 1.46 | 4.42 | 5.62 |  |  |  | 
Immunoglobulin with variant Fc region R255L P396L (antibody) | 2.22 | 1.39 | 1.09 | 0.63 | 0.49 |  |  |  | 
Immunoglobulin with variant Fc region R255L P396L D270E (antibody) | 0.87 | 1.65 | 1.34 | 1.9 | 1.54 |  |  |  | 
Immunoglobulin with variant Fc region R255L P396L D270E F243L (antibody) | 0.38 | 1.64 | 1.75 | 4.32 | 4.61 |  |  |  | 
Immunoglobulin with variant Fc region R292P (antibody) |  |  |  |  |  | -0.5 | -2.7 | 0.6 | 
Immunoglobulin with variant Fc region R292P F243L P396L Y300L (antibody) | 1.07 | 5.62 | 10.1 | 5.25 | 9.4 |  |  |  | 
Immunoglobulin with variant Fc region R292P V284M K370N (antibody) | 0.37 | 1.37 | 1.14 | 3.7 | 3.1 |  |  |  | 
Immunoglobulin with variant Fc region R292P V305I F243L P396L (antibody) |  |  |  |  |  | -0.3 | -1.6 |  | -3
Immunoglobulin with variant Fc region R292P V305I P396L (antibody) | 0.92 | 1.9 | 1.85 | 2.07 | 2.01 |  |  |  | 
